Legend:
[1] = target: T1, hTHEM2 (human hotdog-fold thioesterase THEM2, thioesterase superfamily member 2) (Homo sapiens, UniProt Q9NPJ3); assay: steady-state competitive inhibition, DTNB thioesterase assay; type: biochemical
T1 sequence (Q9NPJ3 1-140): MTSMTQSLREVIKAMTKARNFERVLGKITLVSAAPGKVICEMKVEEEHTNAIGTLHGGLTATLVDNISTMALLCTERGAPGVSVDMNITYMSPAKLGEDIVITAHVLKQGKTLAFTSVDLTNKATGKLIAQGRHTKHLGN

purified protein = substrate: CCCCCCCCCCCCCC(=O)SCCNC(=O)CCNC(=O)[C@H](O)C(C)(C)COP(=O)(O)OP(=O)(O)OC[C@H]1O[C@@H](n2cnc3c(N)ncnc32)[C@H](O)[C@@H]1OP(=O)(O)O; assay: purified protein; details: pH 7.5; 25.0 °C
[2] = substrate: CC(C)(COP(=O)(O)OP(=O)(O)OC[C@H]1O[C@@H](n2cnc3c(N)ncnc32)[C@H](O)[C@@H]1OP(=O)(O)O)[C@@H](O)C(=O)NCCC(=O)NCCSC(=O)Cc1ccc(O)c(O)c1; assay: steady-state hydrolysis kinetics; type: biochemical, Homo sapiens; details: pH 7.5; 25.0 °C
[3] = substrate: CC(C)(COP(=O)(O)OP(=O)(O)OC[C@H]1O[C@@H](n2cnc3c(N)ncnc32)[C@H](O)[C@@H]1OP(=O)(O)O)[C@@H](O)C(=O)NCCC(=O)NCCSC(=O)Cc1cccc(O)c1; assay: steady-state hydrolysis kinetics; type: biochemical, Homo sapiens; details: pH 7.5; 25.0 °C
[4] = substrate: CCCCCC/C=C\CCCCCCCC(=O)SCCNC(=O)CCNC(=O)[C@H](O)C(C)(C)COP(=O)(O)OP(=O)(O)OC[C@H]1O[C@@H](n2cnc3c(N)ncnc32)[C@H](O)[C@@H]1OP(=O)(O)O; assay: steady-state hydrolysis kinetics; type: biochemical, Homo sapiens; details: pH 7.5; 25.0 °C
[5] = substrate: CCCCCCCC/C=C\CCCCCCCC(=O)SCCNC(=O)CCNC(=O)[C@H](O)C(C)(C)COP(=O)(O)OP(=O)(O)OC[C@H]1O[C@@H](n2cnc3c(N)ncnc32)[C@H](O)[C@@H]1OP(=O)(O)O; assay: steady-state hydrolysis kinetics; type: biochemical, Homo sapiens; details: pH 7.5; 25.0 °C
[6] = substrate: CCCCCCCCCC(=O)SCCNC(=O)CCNC(=O)[C@H](O)C(C)(C)COP(=O)(O)OP(=O)(O)OC[C@H]1O[C@@H](n2cnc3c(N)ncnc32)[C@H](O)[C@@H]1OP(=O)(O)O; assay: steady-state hydrolysis kinetics; type: biochemical, Homo sapiens; details: pH 7.5; 25.0 °C
[7] = substrate: CCCCCCCCCCCC(=O)SCCNC(=O)CCNC(=O)[C@H](O)C(C)(C)COP(=O)(O)OP(=O)(O)OC[C@H]1O[C@@H](n2cnc3c(N)ncnc32)[C@H](O)[C@@H]1OP(=O)(O)O; assay: steady-state hydrolysis kinetics; type: biochemical, Homo sapiens; details: pH 7.5; 25.0 °C

## CCNC(=O)CCNC(=O)[C@H](O)C(C)(C)COP(=O)(O)OP(=O)(O)OC[C@H]1O[C@@H](n2cnc3c(N)ncnc32)[C@H](O)[C@@H]1OP(=O)(O)O [desulfoCoA]
[1]
  Ki: 9 µM

B1: hTHEM2 (human hotdog-fold thioesterase THEM2, thioesterase superfamily member 2) (Homo sapiens) (protein)
chain: T1 sequence (Q9NPJ3 1-140)
Purified protein
  Km: 5 µM
  kcat: 0.02 s⁻¹
  kcat/Km: 4000 M⁻¹ s⁻¹
[2]
  Km: 10 µM
  kcat: 0.19 ± 0.01 s⁻¹
  kcat/Km: 18000 M⁻¹ s⁻¹
[3]
  Km: 41 µM
  kcat: 1.4 ± 0.1 s⁻¹
  kcat/Km: 35000 M⁻¹ s⁻¹
[4]
  Km: 9 µM
  kcat: 0.017 ± 0.001 s⁻¹
  kcat/Km: 1900 M⁻¹ s⁻¹
[5]
  Km: 9 µM
  kcat: 0.011 ± 0.001 s⁻¹
  kcat/Km: 1300 M⁻¹ s⁻¹
[6]
  Km: 4.9 µM
  kcat: 0.016 ± 0.001 s⁻¹
  kcat/Km: 3300 M⁻¹ s⁻¹
[7]
  Km: 9.9 µM
  kcat: 0.019 ± 0.001 s⁻¹
  kcat/Km: 1900 M⁻¹ s⁻¹

— PMC2929599 (Biochemistry, 2009)
